Experimental data: paper PMC8983844

Target: protein A (UniProt P38507)
Assay: spectral-domain phase-sensitive interferometry (SD-PSI), label-free; protein A (0.5 mg/ml) adsorbed on a dopamine layer on a glass chip (0.17 or 0.20 mm) and blocked with protein-free blocking solution; IgG solution (20 ug/ml mouse IgG; gradient of 10, 20, 30, 50 ug/ml IgG) passed through the flow chamber; PBS washes; reference path without protein A

mouse IgG (antibody)
phase change at 20 ug/ml IgG: 0.04 rad | thickness variation at 10 ug/ml IgG: 1.86 nm | thickness variation at 20 ug/ml IgG: 3.76 nm | thickness variation at 30 ug/ml IgG: 5.45 nm | thickness variation at 50 ug/ml IgG: 10.1 nm
